Data on two substances can be found in publication PMC8160712.

The experiment has as its target Recombinant protein G from Escherichia coli (group G Streptococci) (UniProt P06654). The experiment can be described thus: total internal reflected imaging ellipsometry (TIRIE); protein G immobilised on EDC/NHS-activated MUA gold surface (100 μg/mL in the whole-process run); antibody flowed over for 20 min, rinsed with PBST; real-time grayscale signal.

On to Anti-CD63 antibody [MEM-259], for which the TIRIE signal increase was determined as 900 grayscale and the TIRIE signal increment with protein G was 650.

In the case of Anti-CD9 antibody [MEM-61], the TIRIE signal increase turned out to be 900 grayscale and the TIRIE signal increment with protein G was determined as 640.
